Source: patent US9023998B2, “Near infrared fluorogen and fluorescent activating proteins for in vivo imaging and live-cell biosensing” (Carnegie Mellon University, priority 2013, dated 2015)

Columns and labels:
dL9 (SEQ. ID NO: 1) = assay: Fluorescence activation of SKC638 by purified dL9; format: biochemical; conditions: molar excess of purified dL9, excitation 630 nm, non-normalized spectrum
Text: The non-normalized emission spectrum shown (black, solid) was acquired using a Quantamaster fluorometer (PTI) by excitation through monochromators set at 630 nm. The primary peak near 730 nm is likely due to contaminating SKC602, while a second, smaller peak is clearly observed near 823 nm, and is likely contributed by the extended chromophore of SKC638.

[1] = tested on: HEK293 cells expressing dL9.5; assay: Confocal imaging of HEK293 cells expressing dL9.5 in various cellular contexts; format: cell-based; conditions: cytoplasmic dL9.5-eGFP, 200 nM SKC602, fluorogen not washed away
Text: The expressed construct was imaged using an Andor Revolution XD spinning disk confocal (GFP 488:525/50, dL9.5 (SEQ. ID. NO. 3) 640:685/70 AND 640:794/160, 60×1.49 NA oil immersion objective) and the results are shown in FIG. 5. […] The fluorogen was not washed away prior to imaging.
Imaging conditions were similar to those described for obtaining FIG. 5.
CYTOPLASM. HEK293 cells were transfected with, and stably expressing the pCYdL9.5eGFP vector, were thawed from a cryostock and maintained in DMEM/10% FBS for four passages prior to fluorescence imaging procedures. Immediately prior to imaging, growth media was exchanged for HBSS (pH 7.4) supplemented with SKC602 (200 nM final concentration). The cells were allowed to recover at 37° C. with 5% CO2 for 20-30 minutes, and fluoromodule activity under in vivo conditions within the cytoplasm was imaged using an Andor Revolution XD spinning disk confocal microscope (60×1.49 NA oil immersion objective, excitation at 640 nm, emission in far-red: 685/70 filter, and NIR: 794/160 filter). The same cells were also imaged for eGFP activity (excitation at 488 nm, emission via 525/50 nm filter). […] In accordance with the fluoromodule emission spectrum shown in FIG. 2, this emission filter allows the microscope camera to detect a large portion of the fluoromodule emission, and consequently, the observed signal appears brighter. One must note that intensities cannot be directly compared between channels, due to considerations non-exclusively including: differences in excitation light intensities, exposure and capture times, the transmission profile of each emission filter, and the quantum efficiency of the iXON3 DU897 (back-illuminated) camera across the range of emitted wavelengths. An evenly distributed fluorescence signal is observed in these cells, with no bright foci that would indicate protein aggregation, and the fluoromodule signal intensity scales with that of eGFP.
PLASMA MEMBRANE. […]

[2] = Relative fluorescence quantum yield of fluoromodules, gradient method; format: physicochemical; conditions: relative to Cy5.18 in PBS pH 7.4 and oxazine-1 in ethanol; molar excess of FAP; room temperature
Description: (§1) Relative fluorescence quantum yield assessments were conducted via the gradient method (Williams, Winfield and Miller, Relative Fluorescent Quantum Yield Using a Computer-controlled Luminescence Spectrometer, Analyst, vol. 108, 1067-1071 ([…]) against reference dyes Cy5.18 in PBS, pH 7.4 (Mujumdar, et al., Cyanine Dyes Labeling Reagents: Sulfoindocyanine Succinimidyl Esters, Bioconjugate Chemistry, Vol. 4, No. 2, 105-111 (1993) and oxazine-1 in absolute ethanol (Worth, et al., Integrating Sphere Setup for the Traceable Measurement of Absolute Photoluminescence Quantum Yields in the Near Infrared, Analytical Chemistry, 84, 1345-1352 (2012). Fluoromodules were formed by combining a quantity of fluorogen (SKC602 or SKC728) at least 20-fold above the fluoromodule dissociation constant with a molar excess of purified FAP (dL9.2 (SEQ. ID. NO. 2) or dL9.5 (SEQ. ID. NO. 3)). The solutions were incubated at 4° C. with rocking for at least one hour prior to measurements in order to ensure complete complex formation. The optical path length for all sample measurements was 1.00 cm, and all solutions were at room temperature during measurement. Absorbance measurements were taken using a PerkinElmer Lambda 45 UV/VIS spectrometer, while fluorescence emission spectra were measured using a Quantamaster fluorometer equipped with dual excitation and emission monochromators (Photon Technology International). Fluorescence emission was integrated using Spekwin32 (Menges 2013, http://www.effemm2.de/spekwin/spekwin_copyright/de.html. Linear fits and quantum yield ratios were calculated in Microsoft Excel 2013.

[3] = Fluoromodule activity/stability with respect to pH; format: physicochemical; conditions: for Longer-term stability of fluorescence across pH: 24 hours
Description: […] 4. The averages of five replicates per pH increment are shown as filled circles; bars denote extreme values within each replicate set, and normalization is to the maximum value within all data points. […] Stability of this degree allows the fluoromodule probe to be useful in an extremely wide range of cellular contexts.
A set of titrating buffers occupying pH values from 2.0 to 10.0 in 0.5 unit increments was prepared at room temperature in accordance to a published recipe (Carmody, An Easily Prepared Wide Range Buffer Series, Journal of Chemical Education, Vol. 38, No. 11, pp. 559-560 (1961)) adjusted to accommodate sodium chloride at a concentration of 300 mM. Fluoromodules consisting of dL9.5 bound to SKC602 were prepared by addition of 16.7 μL HPLC-purified SKC602 (300 μM stock in EtOH/5% acetic acid) to 1.30 mL Buffer (10.0 mM Tris, pH 8.0 at RT, supplemented with 300 mM NaCl). Purified dL9.5 was added (1.5 mL, approximately 50 μM stock) and incubated at 4° C. for 90 minutes. […] Fluorescence was then measured using a TECAN Infinite M1000 plate reader with 695/10 nm excitation and 735/10 nm emission windows at a gain of 111. Data was processed in Microsoft Excel 2010: The mean fluorescence intensity value for each pH increment was calculated, and all mean values were divided by the maximum mean intensity in order to normalize fluorescence intensities measured across the entire pH range to a value of 1.0. Extreme values within each set of five replicates calculated to a percentage of the mean for each pH increment in order to indicate the degree of variation across replicate reads.

[4] = Spectral properties of fluoromodules (Table 1); format: physicochemical; conditions: fluoromodule (FAP:fluorogen complex)
Text: The spectral properties of fluoromodules assembled from combinations of dL9.2 (SEQ. ID. NO. 2) and dL9.5 (SEQ. ID. NO. 3) with SKC602 and SKC728 are listed in Table 1. dL9.2 (SEQ. ID. NO. 2) is an asymmetric light chain (VL-VL) tandem dimer based upon dL9 (SEQ. ID. NO. 1), hosting the V70A mutation on the N-terminal light chain. dL9.5 (SEQ. ID. NO. 3) is a symmetric light chain (VL-VL) tandem dimer based upon dL9.2 (SEQ. ID. NO. 2) with the V70A mutation propagated to C-terminal chain, and an additional Y96H mutation that is present on both chains. These genetically encoded fluorescent labels yield good brightness in the far-red/NIR spectral regime when combined with their cognate fluorogens.
The dL9.2:SKC602 (SEQ. ID. NO. 2:SKC602) fluoromodule (black, solid) emits at longer wavelengths than existing biliverdin-binding infra-red fluorescent proteins, while retaining the ability to be excited effectively by common illumination sources such as the HeNe laser line (633 nm) as well as lamps equipped with Cy5™-compatible excitation filters. Spectra of dL9.5 (SEQ. ID. NO. 3) bound to SKC602 are highly similar. Excitation and emission spectra are normalized to the highest value within each data set.
as §1

Molecule: CN(C)c1ccc(/C=C/C=C/C(=C2C=CC(=[N+](C)C)C=C2)c2ccc(N(C)C)cc2)cc1 [SKC638]
- Emission peak contributed by extended chromophore (dL9 (SEQ. ID NO: 1)): ~823 nm

B1: dL9.5:SKC602: fluoromodule: FAP dL9.5 (SEQ. ID. NO. 3) non-covalently complexed with fluorogen SKC602 (protein)
chain: SYELTQPPSVSVSPGQTARITCSGDALPKQYTYWYQQKAGQAPVLVIYKDTERPSGIPERFSGTSSGTTATLTISGVQAEDEADYYCQSADSSGSHVFFGGGTKVTVLSGGGGPGGGSGGGSGGGSGGGSYELTQPPSVSVSPGQTARITCSGDALPKQYTYWYQQKAGQAPVLVIYKDTERPSGIPERFSGTSSGTTATLTISGVQAEDEADYYCQSADSSGSHVFFGGGTKVTVLS
modifications: non-covalent fluorogen SKC602; Fluorogen Activating Peptide (FAP) sequence
- NIR fluorescence in cytoplasm of HEK293 cells [1]: produces NIR fluorescence
- Φ (fluorescence quantum yield) [2]: 0.17
- Fluorescence stability across pH range ([3]; Carmody buffer with 300 mM NaCl, pH 2-10, after three hours): exceptional stability across a broad pH range
- Change of mean fluorescence in each pH solution over one hour ([3]; pH 2.0-10.0, reads every minute for one hour): ≤ 3%
- Brightness (ε · Φ · 1 × 10^−3) [4]: 20
- Em (nm), emission maximum [4]: 731 nm
- Ex (nm), excitation maximum [4]: 702 nm
- ε [4]: 120000 M⁻¹ cm⁻¹

B2: dL9.5:SKC728: fluoromodule: FAP dL9.5 (SEQ. ID. NO. 3) non-covalently complexed with fluorogen SKC728 (protein)
chain: SYELTQPPSVSVSPGQTARITCSGDALPKQYTYWYQQKAGQAPVLVIYKDTERPSGIPERFSGTSSGTTATLTISGVQAEDEADYYCQSADSSGSHVFFGGGTKVTVLSGGGGPGGGSGGGSGGGSGGGSYELTQPPSVSVSPGQTARITCSGDALPKQYTYWYQQKAGQAPVLVIYKDTERPSGIPERFSGTSSGTTATLTISGVQAEDEADYYCQSADSSGSHVFFGGGTKVTVLS
modifications: non-covalent fluorogen SKC728; Fluorogen Activating Peptide (FAP) sequence
- Φ (fluorescence quantum yield) [2]: 0.23
- Brightness (ε · Φ · 1 × 10^−3) [4]: 23
- Em (nm), emission maximum [4]: 733 nm
- Ex (nm), excitation maximum [4]: 703 nm
- ε [4]: 98000 M⁻¹ cm⁻¹

B3: dL9.2:SKC602: fluoromodule: FAP dL9.2 (SEQ. ID. NO. 2) non-covalently complexed with fluorogen SKC602 (protein)
chain: SYELTQPPSVSVSPGQTARITCSGDALPKQYTYWYQQKAGQAPVLVIYKDTERPSGIPERFSGTSSGTTATLTISGVQAEDEADYYCQSADSSGSYVFFGGGTKVTVLSGGGGPGGGSGGGSGGGSGGGSYELTQPPSVSVSPGQTARITCSGDALPKQYTYWYQQKAGQAPVLVIYKDTERPSGIPERFSGTSSGTTVTLTISGVQAEDEADYYCQSADSSGSYVFFGGGTKVTVLS
modifications: non-covalent fluorogen SKC602; Fluorogen Activating Peptide (FAP) sequence
- Φ (fluorescence quantum yield) [2]: 0.17
- Longer-term stability of fluorescence across pH [3]: remained stable over 24 hours
- Brightness (ε · Φ · 1 × 10^−3) [4]: 20
- Em (nm), emission maximum [4]: 731 nm
- Ex (nm), excitation maximum [4]: 702 nm
- ε [4]: 120000 M⁻¹ cm⁻¹

B4: dL9.2:SKC728: fluoromodule: FAP dL9.2 (SEQ. ID. NO. 2) non-covalently complexed with fluorogen SKC728 (protein)
chain: SYELTQPPSVSVSPGQTARITCSGDALPKQYTYWYQQKAGQAPVLVIYKDTERPSGIPERFSGTSSGTTATLTISGVQAEDEADYYCQSADSSGSYVFFGGGTKVTVLSGGGGPGGGSGGGSGGGSGGGSYELTQPPSVSVSPGQTARITCSGDALPKQYTYWYQQKAGQAPVLVIYKDTERPSGIPERFSGTSSGTTVTLTISGVQAEDEADYYCQSADSSGSYVFFGGGTKVTVLS
modifications: non-covalent fluorogen SKC728; Fluorogen Activating Peptide (FAP) sequence
- Φ (fluorescence quantum yield) [2]: 0.21
- Longer-term stability of fluorescence across pH [3]: remained stable over 24 hours
- Brightness (ε · Φ · 1 × 10^−3) [4]: 19
- Em (nm), emission maximum [4]: 733 nm
- Ex (nm), excitation maximum [4]: 703 nm
- ε [4]: 90000 M⁻¹ cm⁻¹
